From the RNAGym collection of RNA variant scans (doi:10.1093/molbev/msab373) come the findings set out here.

First the molecules themselves.
B1: Azoarcus group I ribozyme (parent)
chain: GUGCCUUGCGCCGGGAAACCACGCAAGGGAUGGUGUCAAAUUCGGCGAAACCUAAGCGCCCGCCCGGGCGUAUGGCAACGCCGAGCCAAGCUUCGGCGCCUGCGCCGAUGAAGGUGUAGAGACUAGACGGCACCCACCUAAGGCAAACGCUAUGGUGAAGGCAUAGUCCAGGGAGUGGCGAAAGUCACACAAACCGG

The variants in this data set derive from B1. Briefly: reverse-splicing fitness (ratio to wild type); higher = more active; in vitro selection; Mg2+ level not given. The method in brief: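 An in vitro group I ribozyme library with randomized positions was T7-transcribed and gel-purified. In triplicate, 10 pmol RNA in EPPS pH 7.5 was reacted with 50 pmoles of a 30-nt RNA substrate for 1 h at 37 °C across several added MgCl2 levels (1–48 mM), then stopped with EDTA. Products were reverse transcribed from a substrate-complementary primer, PCR-amplified and sequenced (HiSeq 4000). Fitness is a variant's read proportion after selection over that before, normalised to wild type.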
In the case of C82U A120C C169G U176C, the reverse-splicing fitness is 0.0125.

As to C82U A120C C169G U176A, the reverse-splicing fitness came out at 0.0123.

Take C82U A120C C169G U176G: the reverse-splicing fitness came out at 0.00419.

As to C82U A120C C150A C169A U176G, the reverse-splicing fitness was 0.00426.

As to C82U A120C C150A C169A U176A, the reverse-splicing fitness came to 0.0169.

With C82U A120C C150A C169A U176C, the reverse-splicing fitness stood at 0.0132.

C82U A120G A145C C150A U176G: the reverse-splicing fitness came to 0.00372.

As to C82U A120G A145C C150A U176A, the reverse-splicing fitness came to 0.0076.

Turning to C82U A120G A145C C150A U176C, the reverse-splicing fitness stood at 0.0066.

In the case of C82U A120G A145U C150U C169U U176A, the reverse-splicing fitness amounted to 0.022.

For the variant C82U A120G A145U C150U C169U U176G, the reverse-splicing fitness worked out at 0.00327.

Turning to C82U A120G A145U C150U C169U U176C, the reverse-splicing fitness was found to be 0.0154.

For C82U A120G A145U C150G, the reverse-splicing fitness amounted to 0.00697.

Consider C82U A120G A145U C150U, for which the reverse-splicing fitness amounted to 0.0176.

On to C82U A120G A145U C150A, for which the reverse-splicing fitness stood at 0.00772.

With C82U A120G A145U C169U U176G, the reverse-splicing fitness turned out to be 0.00326.

As to C82U A120G A145U C169U U176C, the reverse-splicing fitness came out at 0.0159.

C82U A120G A145U C169U U176A: the reverse-splicing fitness came out at 0.0216.

For the variant C82U A120C A145U U176A, the reverse-splicing fitness came out at 0.0458.

On to C82U A120C A145U U176C, for which the reverse-splicing fitness stood at 0.0723.

C82U A120C A145U U176G: the reverse-splicing fitness amounted to 0.0114.

For the variant C82U A120G A145U C150G C169A U176A, the reverse-splicing fitness was 0.00927.

For the variant C82U A120G A145U C150G C169A U176C, the reverse-splicing fitness was 0.00949.

In the case of C82U A120G A145U C150G C169A U176G, the reverse-splicing fitness is 0.00411.

For C82U A120G A145C C150A, the reverse-splicing fitness stood at 0.00664.

C82U A120G A145C C150U: the reverse-splicing fitness stood at 0.0102.

As for C82U A120G A145C C150G, the reverse-splicing fitness was determined as 0.00804.

For C82U A120C C150G C169A U176G, the reverse-splicing fitness was 0.00606.

Consider C82U A120C C150G C169A U176C, for which the reverse-splicing fitness is 0.00991.

On to C82U A120C C150G C169A U176A, for which the reverse-splicing fitness is 0.0104.

With C82U A120G A145C C150G C169A U176C, the reverse-splicing fitness turned out to be 0.00565.

Consider C82U A120G A145C C150G C169A U176G, for which the reverse-splicing fitness turned out to be 0.00406.

C82U A120G A145C C150G C169A U176A: the reverse-splicing fitness came to 0.00717.

For the variant C82U A120G A145U C150A C169A U176C, the reverse-splicing fitness was 0.00898.

For the variant C82U A120G A145U C150A C169A U176A, the reverse-splicing fitness turned out to be 0.0112.

On to C82U A120G A145U C150A C169A U176G, for which the reverse-splicing fitness amounted to 0.00335.

Regarding C82U A120G C169G, the reverse-splicing fitness is 0.0242.

As to C82U A120G C169U, the reverse-splicing fitness stood at 0.0177.

For the variant C82U A120G C169A, the reverse-splicing fitness was 0.0184.

Consider C82U A120C C150U C169G, for which the reverse-splicing fitness is 0.00713.

Turning to C82U A120C C150U C169U, the reverse-splicing fitness came to 0.0165.

Turning to C82U A120C C150U C169A, the reverse-splicing fitness turned out to be 0.00876.

With C82U A120G A145G C150A C169G, the reverse-splicing fitness is 0.0101.

Turning to C82U A120G A145G C150A C169U, the reverse-splicing fitness stood at 0.0101.

C82U A120G A145G C150A C169A: the reverse-splicing fitness came out at 0.0113.

C82U A120G A145U C150G C169U U176C: the reverse-splicing fitness is 0.0108.

As to C82U A120G A145U C150G C169U U176A, the reverse-splicing fitness turned out to be 0.0132.

As for C82U A120G A145U C150G C169U U176G, the reverse-splicing fitness amounted to 0.0036.

For C82U A120G A145U C150U U176A, the reverse-splicing fitness was 0.0102.

As for C82U A120G A145U C150U U176C, the reverse-splicing fitness was found to be 0.0143.

Turning to C82U A120G A145U C150U U176G, the reverse-splicing fitness turned out to be 0.00369.

Consider C82U A120G A145G C169U, for which the reverse-splicing fitness worked out at 0.0197.

As to C82U A120G A145G C169G, the reverse-splicing fitness was found to be 0.0254.

For C82U A120G A145G C169A, the reverse-splicing fitness amounted to 0.018.

Regarding C82U A120G A145U C150A C169U U176C, the reverse-splicing fitness was 0.014.

Regarding C82U A120G A145U C150A C169U U176G, the reverse-splicing fitness was 0.00395.

Take C82U A120G A145U C150A C169U U176A: the reverse-splicing fitness came to 0.022.

Turning to C82U A120G C150U C169A U176C, the reverse-splicing fitness turned out to be 0.014.

Consider C82U A120G C150U C169A U176G, for which the reverse-splicing fitness was 0.00423.

C82U A120G C150U C169A U176A: the reverse-splicing fitness worked out at 0.016.

For the variant C82U A120G U176A, the reverse-splicing fitness stood at 0.0132.

On to C82U A120G U176G, for which the reverse-splicing fitness turned out to be 0.00399.

In the case of C82U A120G U176C, the reverse-splicing fitness was determined as 0.0175.

As to C82U A120G C169G U176G, the reverse-splicing fitness is 0.00332.

For the variant C82U A120G C169G U176A, the reverse-splicing fitness stood at 0.0215.

Take C82U A120G C169G U176C: the reverse-splicing fitness came to 0.0246.

Regarding C82U A120G A145U C169G U176G, the reverse-splicing fitness came out at 0.00314.

Regarding C82U A120G A145U C169G U176C, the reverse-splicing fitness was 0.0138.

Consider C82U A120G A145U C169G U176A, for which the reverse-splicing fitness was determined as 0.0111.

As to C82U A120G A145U C150U C169G U176C, the reverse-splicing fitness was determined as 0.0139.

Turning to C82U A120G A145U C150U C169G U176G, the reverse-splicing fitness stood at 0.00343.

As to C82U A120G A145U C150U C169G U176A, the reverse-splicing fitness was determined as 0.0116.

As to C82U A120G A145U C150G U176A, the reverse-splicing fitness turned out to be 0.00575.

Turning to C82U A120G A145U C150G U176G, the reverse-splicing fitness stood at 0.00275.

Take C82U A120G A145U C150G U176C: the reverse-splicing fitness came to 0.00808.

Regarding C82U A120C C169A U176A, the reverse-splicing fitness stood at 0.0143.

Regarding C82U A120C C169A U176G, the reverse-splicing fitness worked out at 0.00409.

On to C82U A120C C169A U176C, for which the reverse-splicing fitness came to 0.0121.

For the variant C82U A120C C169U U176A, the reverse-splicing fitness amounted to 0.0188.

In the case of C82U A120C C169U U176G, the reverse-splicing fitness is 0.00414.

As to C82U A120C C169U U176C, the reverse-splicing fitness worked out at 0.0166.

Regarding C82U A120G C150G C169U U176G, the reverse-splicing fitness is 0.00521.

Take C82U A120G C150G C169U U176A: the reverse-splicing fitness is 0.0125.

For the variant C82U A120G C150G C169U U176C, the reverse-splicing fitness is 0.0118.
